From US20100279930A1 (published 2010)
Changes are numbered by the printed parent chain.

B1: 4058054 (peptide)
chain: YAPLEPHYPGDDATPQQMARYAAELRRYINKLTRPRY
B2: 4057897 (peptide)
chain: B1 chain with Y1P
B3: 4057899 (peptide)
chain: B1 chain with Y1G
B4: 4058053 (peptide)
chain: B1 chain with H7E
B5: 4057902 (peptide)
chain: B1 chain with Y1H, D12N, Q16E
B6: 4057764 (peptide)
chain: APLEPHYPGDNATPEQMAKYAAELRRYINKLTRPRY
B7: 4057754 (peptide)
chain: B6 chain with E23A
B8: 4057745 (peptide)
chain: B6 chain with E23D, Y36F
B9: 4057781 (peptide)
chain: PAPLEPSYPGDNATPEQLAHYYSELRRYINKLTRPRY
B10: 4057789 (peptide)
chain: B9 chain with S7H, N12D, E16Q
B11: 4057779 (peptide)
chain: B9 chain with P1A
B12: 4057769 (peptide)
chain: PAPLEPVYPGDNATPEELARYAAELRRYINKLTRPRY
B13: 4057755 (peptide)
chain: AAPLEPHYPGDNATPEQMAKYAAALRRYINKLTRPRY
B14: 4057758 (peptide)
chain: B13 chain with A22Y, A23S
B15: 4057765 (peptide)
chain: B13 chain with A24E
B16: 4055407 (peptide)
chain: APLEPEYPGDDATPEQMAEYAADLRRYINMLTRPRY
B17: 4055403 (peptide)
chain: B16 chain with E6V, D11N, E19Q, N29D
B18: 4054981 (peptide)
chain: B16 chain with E6V, D11N, E19Q, R25M
B19: 4054987 (peptide)
chain: B16 chain with E6V, D11N, E19Q, R35H
B20: 4054976 (peptide)
chain: B16 chain with E6V, D11N, E19Q, R35M
B21: 4054977 (peptide)
chain: B16 chain with E6V, D11N, E19Q, R35Q
B22: 4055405 (peptide)
chain: B16 chain with L3P, E6V, A21V
B23: 4055197 (peptide)
chain: KPLEPVYPGDDATPQQMAQYAAELRRYINMLTRPRY
B24: 4055196 (peptide)
chain: B23 chain
B25: 4055292 (peptide)
chain: B23 chain with D11N, Q15E, E23D
B26: 4055406 (peptide)
chain: B16 chain with E6V
B27: 4055398 (peptide)
chain: APLEPVYPGDNATPEQNLAQYAADLRRYINMLTRPRY
B28: 4055287 (peptide)
chain: PLEPFYPGDDATPQQMAQYAAALRRYINMLTRPRY
B29: 7255 (peptide)
chain: B1 chain with Y1P, H7K
B30: 7248 (peptide)
chain: B13 chain with A1P, H7K, K20R, K31M
B31: 7268 (peptide)
chain: PAPLEPTYPGDDATPQQMAKYAAALRRYINILTRPRY
B32: 7243 (peptide)
chain: B13 chain with A1P, H7V, K20R
B33: 7254 (peptide)
chain: B12 chain with V7E, E17Q, L18M
B34: 7274 (peptide)
chain: B1 chain with Y1A, H7T, K31F
B35: 7271 (peptide)
chain: B31 chain with K20R, A24E
B36: 7258 (peptide)
chain: B1 chain with Y1P, H7T
B37: 7256 (peptide)
chain: B31 chain with T7E, K20R, A24E
B38: 7269 (peptide)
chain: B31 chain with K20R
B39: 7259 (peptide)
chain: B31 chain with K20R, A24E, I31F
B40: 7257 (peptide)
chain: B1 chain with Y1P, H7E, K31F
B41: 7270 (peptide)
chain: B31 chain with A24E
B42: 7252 (peptide)
chain: B13 chain with A1P, H7T, A24E
B43: 4055524 (peptide)
chain: B16 chain with E6V, D11N
B44: 4055399 (peptide)
chain: B16 chain with E6V, D11N, E19Q, M30L
B45: 4055195 (peptide)
chain: B23 chain with K1A, Q15E
B46: 7242 (peptide)
chain: B16 chain with E6V, D11N, E19R, D23A
B47: compound of SEQ ID NO:224 (Lys 19, code 4055291) (peptide)
peptide: B16 chain with E6V, D11N, E19K
B48: 4055525 (peptide)
chain: B16 chain with E6V, D11N, E19H
B49: 4055248 (peptide)
chain: APLEPVYPGDDATPQQMAQYYAELRHYLNLVTRPRY
B50: 4054990 (peptide)
chain: APLEPVYPGDNATPEQMAQYAADLNLRYINMLTRPRY
B51: 4054985 (peptide)
chain: APLEPVYPGDNATPEQMNRYYASLRHYLNLVTRPRY
B52: 4055246 (peptide)
chain: B51 chain with N18A, R19Q, R25Q
B53: 4055245 (peptide)
chain: B51 chain with N18A, R19Q
B54: 4055247 (peptide)
chain: B49 chain with E23S
B55: 4055549 (peptide)
chain: APLEPVYPGDNATPEQLAQYAADLRKYINLLTRPRY
B56: 7250 (peptide)
chain: B13 chain with A1P, H7T, K31M
B57: 7251 (peptide)
chain: B13 chain with A1P, H7T, A24E, K31M
B58: 7249 (peptide)
chain: B13 chain with A1P, H7T, K20R, K31M
B59: 7244 (peptide)
chain: B12 chain with E17Q, L18I, E24A
B60: 7253 (peptide)
chain: B13 chain with A1P, H7T, A24E, K31F

The binders below were run against T1, human Y4 receptor (human, UniProt P50391 1-375) (assay: 125I-PP displacement).
T1 sequence (P50391 whole entry): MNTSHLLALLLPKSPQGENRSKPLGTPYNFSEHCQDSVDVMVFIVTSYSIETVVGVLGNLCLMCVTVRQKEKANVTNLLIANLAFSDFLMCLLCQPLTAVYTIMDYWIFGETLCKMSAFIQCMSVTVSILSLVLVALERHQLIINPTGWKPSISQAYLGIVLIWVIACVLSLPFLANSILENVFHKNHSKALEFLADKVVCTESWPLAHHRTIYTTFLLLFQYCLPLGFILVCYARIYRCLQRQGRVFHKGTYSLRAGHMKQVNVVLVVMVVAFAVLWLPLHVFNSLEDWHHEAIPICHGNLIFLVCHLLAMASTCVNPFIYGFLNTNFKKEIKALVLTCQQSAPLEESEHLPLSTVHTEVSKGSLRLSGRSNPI

Point of comparison: B4, IC50 0.042 nM. Against it:
- B1 — 3.3-fold higher, 0.137 nM
- B2 — 1.7-fold higher, 0.07 nM
- B3 — 1.5-fold higher, 0.064 nM
- B5 — 1.5-fold higher, 0.064 nM
- B6 — 2.2-fold higher, 0.094 nM
- B7 — 3.7-fold higher, 0.156 nM
- B8 — 2-fold higher, 0.086 nM
- B9 — 3.1-fold higher, 0.132 nM
- B10 — 3.9-fold higher, 0.164 nM
- B11 — 1.7-fold higher, 0.071 nM
- B12 — 2.8-fold higher, 0.117 nM
- B13 — 3.5-fold higher, 0.145 nM
- B14 — 4.5-fold higher, 0.19 nM
- B15 — 1.8-fold higher, 0.075 nM

Molecular target: T1, human Y4 receptor
Test: 125I-PP displacement
Remark: another data set of the same source

Point of comparison: B56, IC50 0.099 nM. Against it:
- B16 — 2.9-fold higher, 0.29 nM
- B17 — 5.1-fold higher, 0.5 nM
- B18 — 3.8-fold higher, 0.38 nM
- B19 — 7.3-fold higher, 0.72 nM
- B20 — 14-fold higher, 1.4 nM
- B21 — 18-fold higher, 1.8 nM
- B22 — 2.4-fold higher, 0.24 nM
- B23 — 6.3-fold higher, 0.62 nM
- B24 — 3.3-fold higher, 0.33 nM
- B25 — 4-fold higher, 0.4 nM
- B26 — 1.7-fold higher, 0.17 nM
- B27 — 1.5-fold higher, 0.15 nM
- B28 — 5.1-fold higher, 0.5 nM
- B29 — within 1.5-fold, 0.091 nM
- B30 — within 1.5-fold, 0.131 nM
- B31 — within 1.5-fold, 0.127 nM
- B32 — 1.7-fold lower, 0.058 nM
- B33 — within 1.5-fold, 0.109 nM
- B34 — within 1.5-fold, 0.107 nM
- B35 — 2.2-fold higher, 0.22 nM
- B36 — within 1.5-fold, 0.068 nM
- B37 — within 1.5-fold, 0.132 nM
- B38 — 1.9-fold higher, 0.187 nM
- B39 — within 1.5-fold, 0.075 nM
- B40 — within 1.5-fold, 0.142 nM
- B41 — 1.7-fold higher, 0.171 nM
- B42 — within 1.5-fold, 0.082 nM
- B43 — 3-fold higher, 0.3 nM
- B44 — 2.8-fold higher, 0.28 nM
- B45 — 8.7-fold higher, 0.86 nM
- B46 — within 1.5-fold, 0.14 nM
- B47 — 3.2-fold higher, 0.32 nM
- B48 — within 1.5-fold, 0.11 nM
- B49 — 3.8-fold higher, 0.38 nM
- B50 — 6.8-fold higher, 0.67 nM
- B51 — 1.7-fold higher, 0.17 nM
- B52 — 4.6-fold higher, 0.46 nM
- B53 — 5.1-fold higher, 0.5 nM
- B54 — 3-fold higher, 0.3 nM
- B55 — 2-fold higher, 0.2 nM
- B57 — within 1.5-fold, 0.096 nM
- B58 — within 1.5-fold, 0.089 nM
- B59 — within 1.5-fold, 0.106 nM
- B60 — within 1.5-fold, 0.095 nM
